# Reference: PMC3045599
# Target: NrdA-a/NrdA-b heterodimer of phage Aeh1, wild type (phage Aeh1)
# Assay: GEMMA
substance,measurement,value
"NrdA-a/NrdA-b heterodimer of phage Aeh1, wild type (complex)",stoichiometry N,2
